For assay [1], the target named is Fc receptors on U937 cells (human; IFNγ-activated or non-activated) (human). The experiment in a line: flow cytometry competition on IFNγ-activated U937 cells; competitor 1 µM cp33; Nip228 at 0.001-5 µM.
Assay [2] has the same target. Put plainly: flow cytometry competition on IFNγ-activated U937 cells; competitor 1 µM BDB; Nip228 at 0.001-5 µM. Background: A flow cytometer gives signals particle by particle.

“control monoclonal human IgG1 (Nip228, MedImmune Ltd), unlabelled (antibody)”: the IgG1 concentration above which the peptide is displaced in assay [1] and in assay [2] was 10 nM in each case.
